# Reference: patent US20240390459A1, “ANTI-DEPRESSION AND ANTI-ANXIETY APPLICATION OF POLYPEPTIDE AND COMPLEX” (SHENZHEN CHENYANG BIOLOGICAL TECHNOLOGY CO., LTD, priority 2021, published 2024)
# Ends that are not written are not given here.
# Legend:
# [1] = tested on: D1R and 5-HT2AR; assay: Direct Western blot of hippocampus tissue from treated stressed mice; format: in vivo, mouse; conditions: CRS, CMS and CSDS mice
# Description: (§1) Western blot analysis was carried out after precipitation: the denatured protein was separated on 8% SDS-PAGE gel, then transferred to cellulose nitrate membrane and blocked with TBST; then incubated with mouse antibodies against D1R (SantaCruz Biotechnology, sc-33660) and D2R (SantaCruz Biotechnology, sc-5303) overnight at 4° C.; finally, treated with HRP-coupled secondary antibody for 1 hour, SuperSignal ECL Chemiluminescence Kit was used to detect the signal, and Image Lab software was used to analyze the density of the bands.
# To further evaluate the ability of the polypeptide as an antidepressant, CRS, CMS and CSDS mouse models were constructed according to the method described in Example 2, respectively; 1 hour after construction, mouse models were treated with 10 μM TAT-5HT2AR-SV, TAT-5HT2AR-DV, TAT-5HT2AR-CT or TAT respectively (all treated by single intraperitoneal administration, 3 nmol/g); then FST and TST were performed on CRS, and FST, TST and sucrose preference test (SPT) were performed on CMS and CSDS mice respectively.
# Further, the hippocampus tissue of treated CRS mice was directly analyzed by Western blot to investigate the expression levels of D1R and 5-HT2AR, and the results are shown in FIG. 10.
# In addition, CRS, CMS and CSDS mice treated with TAT-5HT2AR-DV or TAT-5HT2AR-CT were tested respectively.
# [2] = tested on: mice; assay: OFT for residence time in central area; format: in vivo, mouse; conditions: single intraperitoneal 3 nmol/g, 1 hour after treatment, 5 min, vs TAT
# Description: (§2) To evaluate the antianxiety-like effect of the polypeptide of the present invention, mice treated with TAT-5HT2AR-SV, TAT-5HT2AR-DV, TAT-5HT2AR-CT (all treated by single intraperitoneal administration, 3 nmol/g) were subjected to open field test (OFT) for measuring residence time in central area and elevated plus maze test (EPM) 1 hour after treatment, with TAT-treated mice as control. Methods for the tests are as follows:
# OFT (for measuring the residence time in central area): open bottom surface was divided into 25 equal-area grids, with the middle 9 grids as the central area. 1 hour after treated with the polypeptide, mice were placed in the central area and recorded for 5 min, and the residence time of mice in the central area was recorded.
# [3] = target: T1, 5-HT2AR/D1R complex (Mus musculus, UniProt Q61616); assay: Co-immunoprecipitation of hippocampus tissue from polypeptide-treated mice; format: in vivo; conditions: single intraperitoneal administration 3 nmol/g, 1 hour after treatment, control TAT only
# T1 construct: Co-immunoprecipitation was performed using protein samples (100-500 μg protein) from mouse hippocampus tissue; from tissue; host or cells: hippocampus tissue of treated mice (naive, CRS, CMS, CSDS)
# T1 sequence (Q61616 whole entry, one chain of several): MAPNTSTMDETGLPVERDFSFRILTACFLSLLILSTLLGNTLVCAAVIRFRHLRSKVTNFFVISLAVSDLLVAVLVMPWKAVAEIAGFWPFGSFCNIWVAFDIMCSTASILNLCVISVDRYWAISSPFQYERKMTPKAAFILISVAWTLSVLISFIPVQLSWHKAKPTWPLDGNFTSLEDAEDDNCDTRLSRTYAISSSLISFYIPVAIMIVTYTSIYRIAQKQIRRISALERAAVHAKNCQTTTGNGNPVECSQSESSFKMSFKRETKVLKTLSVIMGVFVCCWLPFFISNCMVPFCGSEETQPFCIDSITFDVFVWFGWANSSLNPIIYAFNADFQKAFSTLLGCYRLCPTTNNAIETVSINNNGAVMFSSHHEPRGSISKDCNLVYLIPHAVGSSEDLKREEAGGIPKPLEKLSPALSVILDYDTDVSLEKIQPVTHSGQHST
# Description: (§3) Co-immunoprecipitation was performed using protein samples (100-500 μg protein) from mouse hippocampus tissue. Precipitation was performed using a mouse antibody against 5-HT2AR (SantaCruz Biotechnology, sc-166775) and 25 μl protein A/G plus agarose bead slurry (santaCruz Biotechnology, sc-2001).
# as §1
# Mice were treated with TAT-5HT2AR-SV, TAT-5HT2AR-DV and TAT-5HT2AR-CT, and mice treated with TAT only were used as control (all treated by single intraperitoneal administration, 3 nmol/g). 1 hour after the treatment, the mice used were analyzed according to the co-immunoprecipitation method in Example 1, and the results are shown in FIG. 5.
# [4] = target: T1, 5-HT2AR/D1R complex; assay: Co-immunoprecipitation of hippocampus tissue from polypeptide-treated CRS, CMS and CSDS mice; format: in vivo; conditions: hippocampus tissue of stressed CRS, single intraperitoneal 3 nmol/g, vs TAT
# Description: as §3
# as §1, with “bands. […]” for “bands.”
# The treated CRS, CMS and CSDS mice of Example 6 (TAT-5HT2AR-SV, TAT-5HT2AR-DV, TAT-5HT2AR-CT and TAT) were analyzed according to the co-immunoprecipitation method of Example 1, and the Western blot results were shown in FIG. 9, respectively.
# [5] = tested on: 5-HT2AR and D1R; assay: Direct Western blot of hippocampus tissue from polypeptide-treated mice; format: in vivo; conditions: mouse hippocampus tissue, single intraperitoneal 3 nmol/g, vs TAT
# Description: as §1
# In addition, the hippocampus tissues of TAT-5HT2AR-SV and TAT-treated mice were directly analyzed by Western blot.
# [6] = tested on: mice; assay: Elevated plus maze test (EPM); format: in vivo, mouse; conditions: single intraperitoneal 3 nmol/g, 1 hour after treatment, 5 min, vs TAT
# Description: as §2
# EPM: consists of two open arms (25 cm×8 cm) and two closed arms (25 cm×8 cm), with the intersection as the central area (8 cm×8 cm), which is 40 cm high from the ground. 1 hour after treated with the polypeptide, mice were placed in the central area facing the open arm, and were recorded for their free activities for 5 min. After each animal was tested, the device was wiped with 70% alcohol. The residence time at the open arm, the residence time at the closed arm, and the total movement distance of mice were recorded.
# [7] = target: T2, D1R from mouse hippocampus tissue (Mus musculus, UniProt Q61616); assay: GST pulldown analysis of mouse hippocampus tissue extract with Western blot; format: binding; conditions: 15 μg GST fusion protein, 500 μg mouse hippocampus tissue extract, overnight 4° C.
# T2 construct: from tissue; host or cells: mouse hippocampus tissue extract
# T2 sequence (Q61616 whole entry, the tested form may be a part): as the sequence (Q61616 whole entry, one chain of several) above
# Text: In order to confirm the interbinding site of the 5-HT2AR/D1R complex, the 5-HT2AR full-length cDNA clone (Genbank Accession No.: NM_001378924) was first amplified to obtain cDNA fragments of the CT region of 5-HT2AR (K385-V471) and the third intracellular loop (IL3) region of 5-HT2AR (F255-V324). These fragments were subcloned to the BamH1/EcoR1 or BamH1/Xho1 site of a pGEX-4T-3 plasmid (YouBio no: VT1255). The initial methionine residue and termination codon were incorporated as appropriate. All constructs were resequenced to confirm that splicing and fusion was achieved appropriately. The GST fusion protein containing the third intracellular loop (IL3) of 5-HT2AR (GST-5HT2AR-IL3) and the GST fusion protein containing the CT region of 5-HT2AR (GST-5HT2AR-CT) were expressed from E. coli BL21 viable cells (AlpalifeBio, no: KTSM104L) and purified from bacterial lysate solution.
# 500 μg of dissolved mouse hippocampus tissue extract was diluted with 1×PBS/1% Triton X-100 and then incubated overnight with 20 μl protein GST resin saturated GST protein or 15 μg GST fusion protein at 4° C. Beads were washed 1-8 times with 1×PBS/1% Triton X-100. Binding proteins were eluted with 2×loading buffer, separated by SDS-PAGE, and underwent Western blot with respective antibodies thereof.
# According to the method in the present Example, a pulldown analysis was performed using a GST fusion protein containing a KV region of 5-HT2AR (GST-5HT2AR-KV), a GST fusion protein containing a NN region of 5-HT2AR (GST-5HT2AR-NN), and a GST fusion protein containing a DV region of 5-HT2AR (GST-5HT2AR-DV), and the results of Western blot were shown in FIG. 4 B.
# According to the method in the present Example, a pulldown analysis was performed using a GST fusion protein containing a DA region of 5-HT2AR (GST-5HT2AR-DA), and a GST fusion protein containing a SV region of 5-HT2AR (GST-5HT2AR-SV), and the results of Western blot were shown in FIG. 4 C.
# [8] = target: T3, 5-HT2A receptor (5-HT2AR), endogenous, from mouse hippocampus tissue (mouse, UniProt P35363 1-471); assay: co-immunoprecipitation from mouse hippocampus tissue with anti-5-HT2AR antibody, Western blot for D2R
# T3 construct: Native protein in a tissue lysate, precipitated with a mouse anti-5-HT2AR antibody (sc-166775)
# T3 sequence (P35363 whole entry): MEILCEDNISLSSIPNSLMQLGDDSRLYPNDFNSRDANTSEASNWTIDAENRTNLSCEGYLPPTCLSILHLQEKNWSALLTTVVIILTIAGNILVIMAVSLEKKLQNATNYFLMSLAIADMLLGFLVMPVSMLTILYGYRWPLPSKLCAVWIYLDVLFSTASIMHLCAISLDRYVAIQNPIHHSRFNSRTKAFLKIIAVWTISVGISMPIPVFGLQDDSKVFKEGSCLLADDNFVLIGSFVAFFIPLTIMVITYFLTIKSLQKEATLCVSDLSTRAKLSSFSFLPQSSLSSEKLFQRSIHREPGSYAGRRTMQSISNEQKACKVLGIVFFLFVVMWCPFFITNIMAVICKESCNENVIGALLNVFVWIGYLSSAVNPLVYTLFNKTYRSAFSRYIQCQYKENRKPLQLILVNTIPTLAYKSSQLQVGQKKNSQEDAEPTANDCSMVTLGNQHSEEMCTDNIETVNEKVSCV
Molecule,D1R and 5-HT2AR levels [1],OFT residence time in the central region [2],interaction of 5-HT2AR/D1R (co-immunoprecipitation) [3],interaction between 5-HT2AR and D1R (co-immunoprecipitation) [4],expression of 5-HT2AR and D1R [5],EPM residence time at the closed arm [6],EPM residence time at the open arm [6],pulldown of / affinity to D1R [7],also measured
"TAT-5HT2AR-DV: DV region (D442-V471) of 5-HT2AR fused with TAT (DCSMVALGKQHSEEASKDNSDGVNEKVSCV; cysteine pairing not given here; also: fused with TAT peptide at C-terminal region; UniProt P28223 442-471, looked up, fragment)",did not cause a significant change,significantly increased the residence time,successfully destroyed the interaction of 5-HT2AR/D1R,significantly reduced the interaction between 5-HT2AR and D1R,did not cause a significant change,decreased residence time at the closed arm,significantly increased residence time at the open arm,,
GST-5HT2AR-DV: GST fusion protein containing a DV region of 5-HT2AR (D442-V471) (DCSMVALGKQHSEEASKDNSDGVNEKVSCV; not fully specified (N-terminus); cysteine pairing not given here; also: GST fusion protein),,,,,,,,can pulldown DIR,
GST-5HT2AR-SV: GST fusion protein containing a SV region of 5-HT2AR (S457-V471) (SKDNSDGVNEKVSCV; not fully specified (N-terminus); also: GST fusion protein),,,,,,,,has an affinity to D1R,
"Dopamine D2 receptor (D2R), endogenous, from mouse hippocampus tissue (receptor, UniProt P61168 1-444, looked up, Native protein in a tissue lysate, detected by Western blot with sc-5303) MDPLNLSWYDDDLERQNWSRPFNGSEGKPDRPHYNYYAMLLTLLIFIIVFGNVLVCMAVSREKALQTTTNYLIVSLAVADLLVATLVMPWVVYLEVVGEWKFSRIHCDIFVTLDVMMCTASILNLCAISIDRYTAVAMPMLYNTRYSSKRRVTVMIAIVWVLSFTISCPLLFGLNNTDQNECIIANPAFVVYSSIVSFYVPFIVTLLVYIKIYIVLRKRRKRVNTKRSSRAFRANLKTPLKGNCTHPEDMKLCTVIMKSNGSFPVNRRRMDAARRAQELEMEMLSSTSPPERTRYSPIPPSHHQLTLPDPSHHGLHSNPDSPAKPEKNGHAKIVNPRIAKFFEIQTMPNGKTRTSLKTMSRRKLSQQKEKKATQMLAIVLGVFIICWLPFFITHILNIHCDCNIPPVLYSAFTWLGYVNSAVNPIIYTTFNIEFRKAFMKILHC",,,,,,,,,binding result [8]: no binding
"TAT-5HT2AR-CT: CT region (K385-V471) of 5-HT2AR fused with TAT (peptide, UniProt P28223 385-471, looked up, fragment, C-terminal region fused with TAT peptide, CT region (K385-V471) of 5-HT2AR fused with TAT) KTYRSAFSRYIQCQYKENKKPLQLILVNTIPALAYKSSQLQMGQKKNSKQDAKTTDNDCSMVALGKQHSEEASKDNSDGVNEKVSCV",did not cause a significant change,significantly increased the residence time,successfully destroyed the interaction of 5-HT2AR/D1R,significantly reduced the interaction between 5-HT2AR and D1R,did not cause a significant change,decreased residence time at the closed arm,significantly increased residence time at the open arm,,
"GST-5HT2AR-CT: GST fusion protein containing the CT region of 5-HT2AR (K385-V471) (protein, left off: a dimerising Fc or GST) KTYRSAFSRYIQCQYKENKKPLQLILVNTIPALAYKSSQLQMGQKKNSKQDAKTTDNDCSMVALGKQHSEEASKDNSDGVNEKVSCV",,,,,,,,can pulldown DIR,
